Results on six molecules are retold here after patent US20210163536A1 (IPSEN PHARMA S A S, published 2021).

What all share (assay): competition with [125I]-NDP-alpha-MSH, CHO-K1 cell membranes
The target of test [1] is T1, human melanocortin-1 receptor (human, UniProt Q01726 1-317).
T1 construct: whole, on cells; Ki assays used cellular membranes of the CHO-K1 cells; cAMP assays used the whole cells; also called hMC1; hMC-R receptor subtype 1
The method, then: (§1) Competitive inhibition of [¹²⁵I](Tyr²)-(Nle⁴-D-Phe⁷)α-MSH ([¹²⁵I]-NDP-α-MSH, Amersham Biosciences®) binding was carried out in polypropylene 96 well plates. […] Bound [¹²⁵I]-NDP-α-MSH ligand was separated from free [¹²⁵I]-NDP-α-MSH by filtration through GF/C glass fiber filter plates (Unifilter®; Packard) presoaked with 0.1% (w/v) polyethylenimine (PEI), using a Packard Filtermate® harvester. Filters were washed three times with 50 mM Tris-HCl at pH 7.4 at a temperature of approximately 0-4° C. and then assayed for radioactivity using a Packard Topcount® scintillation counter. Binding data were analyzed by computer-assisted non-linear regression analysis (XL fit; IDBS).

The target in test [2] is T2, human melanocortin-4 receptor (human, UniProt P32245 1-332).
T2 construct: whole, on cells; Ki assays used cellular membranes of the CHO-K1 cells; cAMP assays used the whole cells; also called hMC4; hMC-R receptor subtype 4
The method, then:
as §1

Test [3] deals with T3, human melanocortin-5 receptor (human, UniProt P33032 1-325).
T3 construct: whole, on cells; Ki assays used cellular membranes of the CHO-K1 cells; cAMP assays used the whole cells; also called hMC5; hMC-R receptor subtype 5
The method, then:
as §1

In test [4] the target is T4, human melanocortin-3 receptor (human, UniProt P41968 1-323).
T4 construct: whole, on cells; Ki assays used cellular membranes of the CHO-K1 cells; cAMP assays used the whole cells; also called hMC3; hMC-R receptor subtype 3
The method, then: as §1

T3 sequence (P33032 whole entry): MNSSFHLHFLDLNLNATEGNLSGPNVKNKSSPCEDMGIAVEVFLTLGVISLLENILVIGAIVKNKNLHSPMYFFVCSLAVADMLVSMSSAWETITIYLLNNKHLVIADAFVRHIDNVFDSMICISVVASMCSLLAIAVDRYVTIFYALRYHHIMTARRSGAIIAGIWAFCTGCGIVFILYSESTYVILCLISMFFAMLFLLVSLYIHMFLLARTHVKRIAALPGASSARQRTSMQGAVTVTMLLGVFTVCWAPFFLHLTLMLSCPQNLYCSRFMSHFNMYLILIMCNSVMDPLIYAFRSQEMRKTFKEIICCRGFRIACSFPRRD
T1 sequence (Q01726 whole entry): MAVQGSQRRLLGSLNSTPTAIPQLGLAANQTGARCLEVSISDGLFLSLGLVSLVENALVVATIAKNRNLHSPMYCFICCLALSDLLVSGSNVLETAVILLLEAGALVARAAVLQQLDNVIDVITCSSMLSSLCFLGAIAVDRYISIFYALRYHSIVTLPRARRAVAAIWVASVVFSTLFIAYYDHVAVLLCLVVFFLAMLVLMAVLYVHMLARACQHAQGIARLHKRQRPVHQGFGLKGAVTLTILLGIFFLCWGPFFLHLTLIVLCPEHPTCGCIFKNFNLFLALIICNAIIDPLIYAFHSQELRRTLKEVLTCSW
T2 sequence (P32245 whole entry): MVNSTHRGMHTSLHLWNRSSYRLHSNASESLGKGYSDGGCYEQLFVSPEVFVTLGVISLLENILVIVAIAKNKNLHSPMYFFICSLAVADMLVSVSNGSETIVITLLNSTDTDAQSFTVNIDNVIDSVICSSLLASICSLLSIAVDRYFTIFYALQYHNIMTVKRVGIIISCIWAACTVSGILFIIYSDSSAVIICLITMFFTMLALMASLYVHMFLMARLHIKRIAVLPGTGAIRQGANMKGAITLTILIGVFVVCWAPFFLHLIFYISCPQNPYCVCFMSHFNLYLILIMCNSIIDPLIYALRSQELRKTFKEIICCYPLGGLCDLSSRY
T4 sequence (P41968 whole entry): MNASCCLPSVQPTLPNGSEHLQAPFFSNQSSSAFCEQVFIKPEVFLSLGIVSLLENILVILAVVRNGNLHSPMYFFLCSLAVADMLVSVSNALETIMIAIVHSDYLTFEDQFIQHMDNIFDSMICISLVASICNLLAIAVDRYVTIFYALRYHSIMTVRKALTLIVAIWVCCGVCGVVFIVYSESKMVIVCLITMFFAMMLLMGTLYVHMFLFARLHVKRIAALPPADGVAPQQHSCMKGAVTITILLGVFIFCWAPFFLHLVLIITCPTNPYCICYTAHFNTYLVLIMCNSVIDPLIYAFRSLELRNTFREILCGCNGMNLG

B1: cyclo[Hydantoin(C(O)-(Gly-Cys))-Glu-His-D-Phe-Arg-Trp-Cys]-NH2 (peptide)
peptide: EHXRWC
modifications: not fully specified; hydantoin ring from Gly 1, C(O) and the amino group of Cys 2; D-Phe 5; disulfide Cys 2-Cys 8 (cyclo); C-terminal amide
In the case of B1, the Ki turned out to be 15.6 nM in test [1], 8.92 nM in test [2], 3070 nM in test [3] and 305 nM in test [4].

B2: Hydantoin(C(O)-(Nle-Gly))-cyclo(Cys-Glu-His-D-Phe-Arg-Trp-Cys)-NH2 (peptide)
peptide: CEHXRWC
modifications: not fully specified; hydantoin ring from Nle 1, C(O) and the amino group of Gly 2; Nle 1; D-Phe 6; disulfide Cys 3-Cys 9 (cyclo); C-terminal amide
notes: residue 6 here is D-Phe; also called Compound F
For B2, the figures for the Ki in test [1] and in test [3] were 14.3 nM and 67.8 nM, respectively.

B3: Hydantoin(C(O)-(Arg-Gly))-cyclo(Cys-Glu-His-D-Phe-Arg-Trp-Cys)-NH2 (peptide)
peptide: CEHXRWC
modifications: not fully specified; hydantoin ring from Arg 1, C(O) and the amino group of Gly 2; D-Phe 6; disulfide Cys 3-Cys 9 (cyclo); C-terminal amide
notes: also called Compound C
For the molecule B3, the results for the Ki in test [1] and in test [3] were 8.59 nM and 7760 nM, respectively.

B4: Hydantoin(C(O)-(Gly-Gly))-cyclo(Cys-Glu-His-D-Phe-Arg-Trp-Cys)-NH2 (peptide)
peptide: CEHXRWC
modifications: not fully specified; hydantoin ring from Gly 1, C(O) and the amino group of Gly 2; D-Phe 6; disulfide Cys 3-Cys 9 (cyclo); C-terminal amide
notes: residue 6 here is D-Phe
B4: the values for the Ki in test [1] and in test [3] were 11.9 nM and 73.9 nM, respectively.

B5: cyclo[Hydantoin(C(O)-(Ile-Cys))-D-Ala-His-D-Phe-Arg-Trp-Cys]-NH2 (peptide)
peptide: XHXRWC
modifications: hydantoin ring from Ile 1, C(O) and the amino group of Cys 2; D-Ala 3; D-Phe 5; disulfide Cys 2-Cys 8 (cyclo); C-terminal amide
With B5, the Ki in test [1] was found to be 53.4 nM; in test [2], 41.6 nM.

B6: Hydantoin(C(O)-(Gly-Arg))-cyclo(Cys-Glu-His-D-Phe-Arg-Trp-Cys)-NH2 (peptide)
peptide: CEHXRWC
modifications: hydantoin ring from Gly 1, C(O) and the amino group of Arg 2; D-Phe 6; disulfide Cys 3-Cys 9 (cyclo); C-terminal amide
notes: residue 6 here is D-Phe; also called Compound E
Turning to B6, the Ki in test [1] was 5.68 nM; in test [3] it was 4220 nM.

Broadly, the Ki is the equilibrium dissociation constant of an inhibitor or competing ligand from its target. A high value points to lower affinity.
